Laboratory results published in US20140256789.

Experiments:
[1] = target: p53 (wild-type, endogenous) (Homo sapiens) (UniProt P04637); assay: cell_activity; details: fold decrease in luciferase on p53 siRNA knockdown in HCT116
[2] = test system: p53 (wild-type, transfected); assay: cell_activity; details: luciferase reporter in H1299 with wtp53, fold above pGL3-basic

p53 (wild-type, endogenous) (Homo sapiens), sequence (P04637 whole entry): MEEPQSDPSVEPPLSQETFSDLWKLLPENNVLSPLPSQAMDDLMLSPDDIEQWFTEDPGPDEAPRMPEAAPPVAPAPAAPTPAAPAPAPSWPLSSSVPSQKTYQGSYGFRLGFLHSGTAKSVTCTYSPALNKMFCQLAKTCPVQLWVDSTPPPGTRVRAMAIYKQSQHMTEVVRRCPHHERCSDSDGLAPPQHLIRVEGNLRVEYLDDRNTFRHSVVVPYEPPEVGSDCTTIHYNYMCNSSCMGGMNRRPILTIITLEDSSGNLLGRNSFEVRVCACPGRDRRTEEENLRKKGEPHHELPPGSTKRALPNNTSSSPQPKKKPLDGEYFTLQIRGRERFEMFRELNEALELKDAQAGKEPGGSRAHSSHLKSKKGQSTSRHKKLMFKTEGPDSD

## EST-Prom-luc (about 2 kb miR-34a promoter region with p53BS)
[1]
  activity: > 3 fold
[2]
  activity: 20 fold
